In patent publication US20230302054A1:

Biological target: CD19 antigen on NALM-6 tumor cells (pre-B cell leukemia) (human) (UniProt P15391)
Test: cell-based or functional assay

Chain of CD19 antigen on NALM-6 tumor cells (pre-B cell leukemia) (human) (P15391 20-556): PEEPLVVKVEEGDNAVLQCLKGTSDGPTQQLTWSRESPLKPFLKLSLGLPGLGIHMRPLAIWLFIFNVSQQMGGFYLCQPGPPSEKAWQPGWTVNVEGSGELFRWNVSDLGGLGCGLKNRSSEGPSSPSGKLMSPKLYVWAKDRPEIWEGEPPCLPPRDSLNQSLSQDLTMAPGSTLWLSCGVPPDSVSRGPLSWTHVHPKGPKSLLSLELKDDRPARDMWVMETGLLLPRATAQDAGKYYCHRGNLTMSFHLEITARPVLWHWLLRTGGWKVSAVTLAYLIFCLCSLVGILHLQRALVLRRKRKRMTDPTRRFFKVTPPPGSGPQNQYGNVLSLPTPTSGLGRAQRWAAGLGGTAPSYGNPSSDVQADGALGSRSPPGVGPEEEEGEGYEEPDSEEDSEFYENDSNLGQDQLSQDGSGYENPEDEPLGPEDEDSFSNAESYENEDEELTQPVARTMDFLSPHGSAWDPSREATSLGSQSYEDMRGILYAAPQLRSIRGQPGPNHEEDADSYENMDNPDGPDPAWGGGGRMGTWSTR

Anti-hCD19-CD3 bispecific T cell engager (BiTE) (InvivoGen, #bimab-hcd19cd3) (bispecific antibody)
BiTE-mediated NALM-6 tumor killing (luciferase-based readout, Bcl-xL-transfected CD8+ T cells as effectors): > 95%
